The record followed here is patent KR20110049766A (dated 2011).

Usually Kd stands for the free concentration of one partner at which half of the binding sites on the other are occupied at equilibrium, for simple one-to-one binding.

The target in test [1] is T1, MBP-IL-15 fusion protein (recombinant human IL-15 fused to maltose-binding protein) (human, UniProt P40933 49-162).
T1 construct: Expressed in E. coli TG1 and purified on amylose resin; also called recombinant human IL-15 antigen
Kind of test: competitive inhibition ELISA; Fab-pIII supernatant pre-incubated with soluble antigen, then on coated antigen; Kd from IC50 (Klotz plot). Background: In an ELISA, binding on a coated surface is turned into a signal by an enzyme label.

Test [2] concerns the target T1, MBP-IL-15 fusion protein (recombinant …). Kind of test: ELISA (Fig. 3a), Fab-pIII supernatant on coated antigen.
The target in test [3] is T2, recombinant human TNF-alpha (human, UniProt P01375 77-233).
T2 construct: Bought protein; also called TNF-α; tumor necrosis factor-alpha
Description: competitive inhibition ELISA; Fab-pIII supernatant pre-incubated with soluble antigen, then on coated antigen; Kd from IC50 (Klotz plot).

T1 sequence (P40933 49-162 limits assumed): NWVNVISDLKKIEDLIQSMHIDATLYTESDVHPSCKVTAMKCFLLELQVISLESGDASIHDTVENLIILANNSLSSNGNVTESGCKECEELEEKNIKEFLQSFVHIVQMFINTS
T2 sequence (P01375 77-233 limits assumed): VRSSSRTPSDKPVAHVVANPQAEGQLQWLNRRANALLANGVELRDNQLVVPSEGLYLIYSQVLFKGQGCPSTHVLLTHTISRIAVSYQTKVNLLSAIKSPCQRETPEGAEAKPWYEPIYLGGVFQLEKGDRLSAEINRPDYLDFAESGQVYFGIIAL

B1: anti-IL-15 Fab clone 4H10 (Fab, V domains shown)
VH: EVQLVQSGGGLVEPGGSLRLSCAASGLSISDAWMHWVRQVPGKGLEWVGLITNKTGGGTIIYAAPVKGRFTISRDDSKNTLYLQMNSLKTEDTAMYYCVTTYDQGYWGQGTMVTVSS
VL: ELVLTQSPSSLSASVGDRVTITCRASQSISRYLNWYQQKPGKAPKLLIYGASRLESGVPSRFSGSGSGTDFTLTISSLQPEDFATYYCQQSDSVPVTFGQGTRLEIKR
notes: Tested as a soluble Fab-pIII fusion molecule in E. coli culture supernatant (human Fd = VH+CH1 fused to phage pIII, human kappa light chain); Only the variable domains are tied to the clone; also called 3E3; 4H10 (3E3)
As to B1, the Kd in test [1] worked out at 100 nM.

B2: anti-IL-15 Fab clone 8C5 (Fab, V domains shown)
VH: QVQLLQSGPGLVKPSQTLSLTCAISGDSVSSNSAAWNWIRQSPSRGLEWLGRTYYRSKWYNDYAVSVKSRITINPDTSKNQFSLQLNSVTPEDTAVYYCASHKDPGSSWYRQPFDYWGQGTMVTVS
VL: B1 VL
notes: Tested as a soluble Fab-pIII fusion molecule in E. coli culture supernatant; only the variable domains are tied to the clone
For the molecule B2, the binding result in test [2] is reported as “binds”.

B3: anti-IL-15 Fab clone 1H3 (Fab, V domains shown)
VH: B1 VH
VL: ELVLTQSPGTLSLSPGERATLSCRASQSIFNYVAWYQQKPGQAPRLLIYDASNRATGIPARFSGSGSGTDFTLTISSLEPEDFAVYYCQQRSKWPPTWTFGQGTRVDIKR
notes: as for B2
Regarding B3, in test [1], the Kd turned out to be 700 nM.

B4: anti-IL-15 Fab clone 3C1 (Fab, V domains shown)
VH: B1 VH
VL: DIVMTQSPSSLSASVGDRVPITCRASQGIRNDLGWYQQKPGKAPKLLIYAASSLQSGVPSRFSGSGSGTDFTLTISSLQPEDFATYYCLQDYNYPWTFGQGTQVEIKR
notes: Tested as a soluble Fab-pIII fusion molecule in E. coli culture supernatant; only the variable domains are tied to the clone; also called 4H7; 3C1 (4H7)
Turning to B4, the binding result in test [2] was “binds”.

B5: anti-TNF-α Fab clone TNFa#2 (Fab, V domains shown)
VH: EVQLVQSGGGVVQPGRSLRLSCAASGFSFGDYAMHWVRQAPGKGLEWVSGISWNSRIIGYADSVKGRFTISRDKAKNSLYLQMSSLRTEDTAVYYCARMGGDSSGYYSEPYYYFDYWGQGTLVTVSS
VL: B1 VL
notes: Tested as a soluble Fab-pIII fusion molecule in E. coli culture supernatant; only the variable domains are tied to the clone; also called TNFα#2; #5
As to B5, the Kd in test [3] worked out at 200 nM.

B6: anti-TNF-α Fab clone TNFa#1 (Fab, V domains shown)
VH: QVQLLQSGGGLVKPGGSLRLSCVASGFTFSSYWMSWVRQAPGKGLEWIGEINHSGSTSYNPSLKSRVTISIDTSKNQFSLKLNSVATADTAVYYCARLGWTMVRGVKYYYGMDVWGQGTMVTVSS
VL: B1 VL
notes: Tested as a soluble Fab-pIII fusion molecule in E. coli culture supernatant; only the variable domains are tied to the clone; also called TNFα#1; #4
In the case of B6, the Kd in test [3] came to 1000 nM.
